B1: 1.15.1-1 (antibody, human IgG1, kappa)
heavy: QVQLLQSGAAVTKPGASVRVSCEASGYNIRDYFIHWWRQAPGQGLQWVGWINPKWGQPNNPRQFQGRVSLTRHASWDFDTFSFYMDLKALRSDDTAVYFCARQRSDYWDFDVWGSGTQVTVSSASTKGPSVFPLAPSSKSTSGGTAALGCLVKDYFPEPVTVSWNSGALTSGVHTFPAVLQSSGLYSLSSVVTVPSSSLGTQTYICNVNHKPSNTKVDKKVEPKSCDKTHTCPPCPAPELLAGPDVFLFPPKPKDTLMISRTPEVTCVVVDVSHEDPEVKFNWYVDGVEVHNAKTKPREEQYNSTYRVVSVLTVLHQDWLNGKEYKCKVSNKALPLPEEKTISKAKGQPREPQVYTLPPSREEMTKNQVSLTCLVKGFYPSDIAVEWESNGQPENNYKTTPPVLDSDGSFFLYSKLTVDKSRWQQGNVFSCSVLHEALHSHYTQKSLSLSPGK
light: DIQMTQSPSSLSASVGDTVTITCQANGYLNWYQQRRGKAPKLLIYDGSKLERGVPSRFSGRRWGQEYNLTINNLQPEDIATYFCQVYEFVVPGTRLDLKRTVAAPSVFIFPPSDEQLKSGTASVVCLLNNFYPREAKVQWKVDNALQSGNSQESVTEQDSKDSTYSLSSTLTLSKADYEKHKVYACEVTHQGLSSPVTKSFNRGEC
B2: 1.28.1-1 (antibody, human IgG1, kappa)
heavy: B1 heavy with W55T, V97T, S105T
light: B1 light
B3: 1.16.1-1 (antibody, human IgG1, kappa)
heavy: B1 heavy with W55G
light: B1 light
B4: 1.1.8-1 (antibody, human IgG1, kappa)
heavy: B1 heavy with W55T
light: B1 light with G47A, K49N
B5: 1.24.1-1 (antibody, human IgG1, kappa)
heavy: B1 heavy with W55T, Y84S
light: B1 light
B6: 1.1.11-1 (antibody, human IgG1, kappa)
heavy: B1 heavy with W55T
light: B1 light with R61S, N68T
B7: 1.1.15-1 (antibody, human IgG1, kappa)
heavy: B1 heavy with W55T
light: B1 light with V90F
B8: 1.26.1-1 (antibody, human IgG1, kappa)
heavy: B1 heavy with W55T, V97T
light: B1 light
B9: 1.22.1-1 (antibody, human IgG1, kappa)
heavy: QVQLLQSGAAVTKPGASVRVSCEASGYNIRDYFIHWWRQAPGQGLQWVGWINPKTGQPNNPRQFQGRVSLTRHASTFSFYMDLKALRSDDTAVYFCARQRSDYWDFDVWGSGTQVTVSSASTKGPSVFPLAPSSKSTSGGTAALGCLVKDYFPEPVTVSWNSGALTSGVHTFPAVLQSSGLYSLSSVVTVPSSSLGTQTYICNVNHKPSNTKVDKKVEPKSCDKTHTCPPCPAPELLAGPDVFLFPPKPKDTLMISRTPEVTCVVVDVSHEDPEVKFNWYVDGVEVHNAKTKPREEQYNSTYRVVSVLTVLHQDWLNGKEYKCKVSNKALPLPEEKTISKAKGQPREPQVYTLPPSREEMTKNQVSLTCLVKGFYPSDIAVEWESNGQPENNYKTTPPVLDSDGSFFLYSKLTVDKSRWQQGNVFSCSVLHEALHSHYTQKSLSLSPGK
light: B1 light
B10: 1.1.6-1 (antibody, human IgG1, kappa)
heavy: B1 heavy with W55T
light: B1 light with G47A
B11: 1.1.13-1 (antibody, human IgG1, kappa)
heavy: B1 heavy with W55T
light: B1 light with R61S, N68T, N72S, N73S
B12: 1.30.1-1 (antibody, human IgG1, kappa)
heavy: B1 heavy with W55T, Q118M
light: B1 light
B13: 1.1.10-1 (antibody, human IgG1, kappa)
heavy: B1 heavy with W55T
light: B1 light with N68T
B14: 1.18.1-1 (antibody, human IgG1, kappa)
heavy: B1 heavy with W55H
light: B1 light
B15: 1.1.7-1 (antibody, human IgG1, kappa)
heavy: B1 heavy with W55T
light: B1 light with K49N
B16: 1.1.9-1 (antibody, human IgG1, kappa)
heavy: B1 heavy with W55T
light: B1 light with R52T
B17: 1.21.1-1 (antibody, human IgG1, kappa)
heavy: B1 heavy with W55T, H73D
light: B1 light
B18: 1.20.1-1 (antibody, human IgG1, kappa)
heavy: B1 heavy with W55T, S69T, L70M
light: B1 light
B19: 1.29.1-1 (antibody, human IgG1, kappa)
heavy: B1 heavy with W55T, S115Q
light: B1 light
B20: 1.27.1-1 (antibody, human IgG1, kappa)
heavy: B1 heavy with W55T, S105T
light: B1 light
B21: 1.17.1-1 (antibody, human IgG1, kappa)
heavy: B1 heavy with W55A
light: B1 light
B22: 1.1.12-1 (antibody, human IgG1, kappa)
heavy: B1 heavy with W55T
light: B1 light with N72S, N73S
B23: 1.1.3-1 (antibody, human IgG1, kappa)
heavy: B1 heavy with W55T
light: B1 light with D1E
B24: 1.1.5-1 (antibody, human IgG1, kappa)
heavy: B1 heavy with W55T
light: B1 light with R35K, R36P
B25: 1.1.2-1 (antibody, human IgG1)
heavy: B1 heavy with W55T
VL: DIQMTQSPSSLSASVGDTVTITCQANGYLNWYQQKPGKAPKLLIYDGSKLERGVPSRFSGRRWGQEYNLTINNLQPEDIATYFCQVYEFVVPGTKVDIK
B26: 1.25.1-1 (antibody, human IgG1, kappa)
heavy: B1 heavy with W55T, K88S, A89R
light: B1 light
B27: 1.19.1-1 (antibody, human IgG1, kappa)
heavy: B1 heavy with W55T, S69T
light: B1 light
B28: 1.1.4-1 (antibody, human IgG1, kappa)
heavy: B1 heavy with W55T
light: B1 light with T18R
B29: 1v2-1 (antibody, human IgG1, kappa)
heavy: B1 heavy with W55T, F81Y
light: B1 light

Changes are numbered by the printed parent chain.

For one experiment, the target named is HIV gp120 Bal (HIV). The experiment is described as follows: single-point ELISA. Note: test concentration or dose not given here.
As for B1, the “ELISA (A450)” value turned out to be 0.87 A450.
For B2, the “ELISA (A450)” value worked out at 1.05 A450.
Still for that read-out and setting: as for B3, the figure is 0.92 A450; as for B4, 1.01 A450.
The same measure, in the same setting: as for B5, the figure is 0.98 A450; as for B6, 0.92 A450.
The same measure, in the same setting: under B7 stands 0.93 A450; under B8, 0.81 A450; under B9, 1.03 A450.
On to B10, for which the “ELISA (A450)” value was 0.91 A450.
Still for that read-out and setting: as for B11, the figure is 0.94 A450; as for B12, 0.81 A450.
Regarding B13, the “ELISA (A450)” value is 0.94 A450.
Still for that read-out and setting: as for B14, the figure is 0.97 A450.
On the same count and under the same terms, under B15 stands 0.95 A450; under B16, 0.98 A450; under B17, 0.87 A450.
As for B18, the “ELISA (A450)” value was determined as 0.89 A450.
The same measure, in the same setting: as for B19, the figure is 1.03 A450; as for B20, 0.86 A450.
B21: the “ELISA (A450)” value came to 0.84 A450.
With B22, the “ELISA (A450)” value turned out to be 1.05 A450.
As for B23, the “ELISA (A450)” value came out at 0.97 A450.
The same measure, in the same setting: under B24 stands 0.9 A450; under B25, 0.95 A450; under B26, 1.07 A450.
Still for that read-out and setting: under B27 stands 0.85 A450; under B28, 0.96 A450; under B29, 1.03 A450.

The target in a further experiment is HIV gp120 CAAN (HIV). Description: single-point ELISA. Note: test concentration or dose not given here.
Turning to B1, the “ELISA (A450)” value stood at 1.38 A450.
As to B2, the “ELISA (A450)” value was 0.99 A450.
The same measure, in the same setting: as for B3, the figure is 0.87 A450; as for B4, 0.5 A450.
Take B5: the “ELISA (A450)” value was determined as 0.9 A450.
With B6, the “ELISA (A450)” value came to 1.03 A450.
Same read-out and setting: under B7 stands 0.79 A450; under B8, 1 A450; under B9, 0.87 A450.
As to B10, the “ELISA (A450)” value was found to be 0.46 A450.
Take B11: the “ELISA (A450)” value turned out to be 1.11 A450.
On the same count and under the same terms, as for B12, the figure is 1.05 A450.
Same read-out and setting: under B13 stands 1.1 A450; under B14, 1.18 A450.
As to B15, the “ELISA (A450)” value turned out to be 1 A450.
The same measure, in the same setting: as for B16, the figure is 0.93 A450; as for B17, 0.77 A450; as for B18, 0.8 A450.
Regarding B19, the “ELISA (A450)” value turned out to be 1.08 A450.
Still for that read-out and setting: as for B20, the figure is 0.86 A450.
On the same count and under the same terms, as for B21, the figure is 0.7 A450.
The same measure, in the same setting: as for B22, the figure is 1.02 A450; as for B23, 1 A450; as for B24, 0.9 A450.
Consider B25, for which the “ELISA (A450)” value was found to be 0.93 A450.
In the case of B26, the “ELISA (A450)” value was found to be 1.16 A450.
Same read-out and setting: as for B27, the figure is 0.93 A450; as for B28, 1.09 A450; as for B29, 1 A450.

The values are drawn from US20220089698A1 (published 2022).
